This passage reports stoichiometry N results from paper PMC3935622.

The target in this assay is S. Typhimurium CueP C172S mutant (S. Typhimurium). Put plainly: SEC.

The substance “S. Typhimurium CueP C172S mutant (natural protein)” had a stoichiometry N of 4.
